Positions count from the first letter of the chain named. Names and notes keep the numbering of the source.

Experiment [1] deals with huNav1.5-β1-β2-β3 (human) (UniProt Q14524). The experiment is described as follows: FACS, CHO Flp-In, competitor 1 µM F010300703. Background: Flow cytometry measures light scatter and fluorescence of single cells or particles in a stream.
The target of experiment [2] is rhNav1.7α + β1-β2-β3 (rhesus monkey). The experiment is described as follows: FACS, CHO Flp-In, competitor 1 µM F010300703.
Experiment [3] deals with huNav1.7α + β1-β2-β3 (human) (UniProt Q15858). Briefly: FACS, CHO Flp-In, competitor 1 µM IRR00092.
For experiment [4], the target named is huNav1.5-β1-β2-β3 (human) (UniProt Q14524). The experiment is described as follows: FACS, CHO Flp-In, competitor 1 µM IRR00092.
Experiment [5] deals with rhNav1.7α + β1-β2-β3 (rhesus monkey). Briefly: FACS, CHO Flp-In, competitor 1 µM IRR00092.
The target of experiment [6] is huNav1.7α + β1-β2-β3 (human) (UniProt Q15858). The experiment is described as follows: binding FACS, CHO Flp-In, periplasmic extract.
The target in experiment [7] is huNav1.5-β1-β2-β3 (human) (UniProt Q14524). Briefly: binding FACS, CHO Flp-In, periplasmic extract.
For experiment [8] the target is unchanged. Briefly: binding FACS, HEK Flp-In.
Experiment [9] deals with huNav157chim14-β1-β2-β3 (human). Briefly: binding FACS, HEK Flp-In.
Another experiment has as its target huNav1.7α + β1 (human) (UniProt Q15858). The experiment is described as follows: cell-based or functional assay.
In experiment [10] the target is rhNav1.7α + β1-β2-β3 (rhesus monkey). The experiment is described as follows: cell-based or functional assay.
For experiment [11], the target named is huNav1.7α + β1-β2-β3 (human) (UniProt Q15858). Briefly: competition FACS IC50 with 50 µM human SA against without.
In experiment [12] the target is rhNav1.7α + β1-β2-β3 (rhesus monkey). The experiment is described as above.
In experiment [13] the target is huNav1.7α + β1-β2-β3 (human) (UniProt Q15858). The experiment is described as follows: competition FACS vs EC25 of 275B05(N93R), CHO FlpIn, + 50 µM human SA.
Experiment [14] deals with rhNav1.7α + β1-β2-β3 (rhesus monkey). The experiment is described as above.
Experiment [15] deals with huNav1.7α + β1-β2-β3 (human) (UniProt Q15858). Briefly: competition FACS vs EC25 of 275B05(N93R), CHO FlpIn.
Experiment [16] deals with rhNav1.7α + β1-β2-β3 (rhesus monkey). The description is as above.
The target of experiment [17] is muNav1.7α (murine Nav1.7α) (murine) (UniProt Q62205). Briefly: FACS, periplasmic extract, HEK Jmp-In cells; SD MFI 123.
For experiment [18], the target named is rhNav1.7α + β1-β2-β3 (rhesus Nav1.7α co-expressed with Navβ1, Navβ2 and Navβ3) (rhesus monkey). The experiment is described as follows: FACS, periplasmic extract, CHO Flp-In cells; SD MFI 10.
Experiment [19] shares this target. Briefly: FACS, periplasmic extract, CHO Flp-In cells; SD MFI 34.
For experiment [20], the target named is muNav1.7α (murine Nav1.7α) (murine) (UniProt Q62205). The experiment is described as follows: FACS, periplasmic extract, HEK Jmp-In cells; SD MFI 61.
The target in experiment [21] is rhNav1.7α + β1-β2-β3 (rhesus Nav1.7α co-expressed with Navβ1, Navβ2 and Navβ3) (rhesus monkey). Briefly: FACS, periplasmic extract, CHO Flp-In cells; SD MFI 20.
Experiment [22] shares this target. Briefly: FACS, periplasmic extract, CHO Flp-In cells; SD MFI 22.
The target is the same in experiment [23]. Briefly: FACS, periplasmic extract, CHO Flp-In cells; SD MFI 49.
The target is the same in experiment [24]. Briefly: FACS, periplasmic extract, CHO Flp-In cells; SD MFI 4.
The target is the same in experiment [25]. Briefly: FACS, periplasmic extract, CHO Flp-In cells; SD MFI 16.
The target in experiment [26] is muNav1.7α (murine Nav1.7α) (murine) (UniProt Q62205). The experiment is described as follows: FACS, periplasmic extract, HEK Jmp-In cells; SD MFI 24.
Experiment [27] deals with rhNav1.7α + β1-β2-β3 (rhesus Nav1.7α co-expressed with Navβ1, Navβ2 and Navβ3) (rhesus monkey). Briefly: FACS, periplasmic extract, CHO Flp-In cells; SD MFI 13.
The target is the same in experiment [28]. The experiment is described as follows: FACS, periplasmic extract, CHO Flp-In cells; SD MFI 53.
For experiment [29] the target is unchanged. The experiment is described as follows: FACS, periplasmic extract, CHO Flp-In cells; SD MFI 33.
Experiment [30] concerns the target muNav1.7α (murine Nav1.7α) (murine) (UniProt Q62205). The experiment is described as follows: FACS, periplasmic extract, HEK Jmp-In cells; SD MFI 23.
The target is the same in experiment [31]. The experiment is described as follows: FACS, periplasmic extract, HEK Jmp-In cells; SD MFI 3361.
The target of experiment [32] is rhNav1.7α + β1-β2-β3 (rhesus Nav1.7α co-expressed with Navβ1, Navβ2 and Navβ3) (rhesus monkey). The experiment is described as follows: FACS, periplasmic extract, CHO Flp-In cells; SD MFI 2.
Experiment [33] has as its target muNav1.7α (murine Nav1.7α) (murine) (UniProt Q62205). The experiment is described as follows: FACS, periplasmic extract, HEK Jmp-In cells; SD MFI 5.
Experiment [34] concerns the target rhNav1.7α + β1-β2-β3 (rhesus Nav1.7α co-expressed with Navβ1, Navβ2 and Navβ3) (rhesus monkey). The experiment is described as follows: FACS, periplasmic extract, CHO Flp-In cells; SD MFI 0.
Experiment [35] shares this target. Briefly: FACS, periplasmic extract, CHO Flp-In cells; SD MFI 18.
In experiment [36] the target is muNav1.7α (murine Nav1.7α) (murine) (UniProt Q62205). Briefly: FACS, periplasmic extract, HEK Jmp-In cells; SD MFI 175.
Experiment [37] addresses rhNav1.7α + β1-β2-β3 (rhesus Nav1.7α co-expressed with Navβ1, Navβ2 and Navβ3) (rhesus monkey). Briefly: FACS, periplasmic extract, CHO Flp-In cells; SD MFI 15.

B1: F010300702 (bispecific antibody, V domains shown, not shown: small tags and cut ends)
VH: EVQLVESGGGLVQPGGSLRLSCAASGSIFNINSMAWYRRAPGKQRELVASSTNGGSTNYADSVKGRFTISRDNAKRVYLQMNSLTPEDTAVYYCRALLQPSIYDISRTYWGQGTLVTVSS
For the molecule B1, the MFI in [1] came out at 653 MFI; in [2] it was 721 MFI; in experiment [3], 4120 MFI; in experiment [4], 684 MFI; in experiment [5], 5170 MFI; in experiment [6] it was 1570 MFI. Further, the MFI in experiment [7] is 662 MFI; in experiment [8], 946 MFI; in experiment [9], 15400 MFI.

B2: F010301555 (bispecific antibody, part only; not given: Anti-albumin building block, part only)
chain, part: DVQLVESGGGLVQPGGSLRLSCAASGPVFNINSMAWYRRAPGKQRELVAYSTPGWDWNYADSVKGRFTISRDNAKRVYLQMNSLTPEDTAVYYCRWLLQPSIYDISRTYWGQGTLVTVSSGGGGSGGGS
On to B2, for which the Human SA ratio of QPatch IC50 (in the experiment with huNav1.7α + β1 (human); in [10]) was 7 throughout. The QPatch electrophysiology IC50 [M], HEK cells was found to be 4.7e-08 M in the experiment with huNav1.7α + β1 (human) and 3.5e-08 M in experiment [10]. The QPatch electrophysiology IC50 [M], HEK cells, + 10 µM human SA came out at 3.4e-07 M with huNav1.7α + β1 (human) and 2.6e-07 M in experiment [10]. Moreover, the Human SA ratio in experiment [11] worked out at 8; in experiment [12], 10. The IC50 (commonly the point on the concentration scale where inhibition reaches its midpoint) in experiment [13] was 1200 nM; in [14], 880 nM; in [15] it was 140 nM; in experiment [16], 92 nM.

B3: F0103464B09 N99Q library variant (VHH, name in Kabat numbering)
VHH: EVQLVESGGGLVQPGGSLRLSCATTSRAFIRDVFTGWYRRVPGKERELVARIYNGGNTNYADFAKGRFSISRDNAKKMVTLRMSNLKPEDTGVYYCLFSGTIQTGREYRSGDYWGQGTLVTVSS
As to B3, the Mean MFI in [17] was determined as 1490 MFI; in experiment [18], 546 MFI.

B4: F0103464B09 T100M library variant (VHH, name in Kabat numbering)
VHH: B3 VHH with Q103N, T104M
Consider B4, for which, in [19], the Mean MFI was 585 MFI.

B5: F0103464B09 N99Y library variant (VHH, name in Kabat numbering)
VHH: B3 VHH with Q103Y
Turning to B5, the Mean MFI is 936 MFI in experiment [20] and 490 MFI in [21].

B6: F0103464B09 N99T library variant (VHH, name in Kabat numbering)
VHH: B3 VHH with Q103T
As for B6, the Mean MFI in experiment [22] is 839 MFI.

B7: F0103464B09 T100R library variant (VHH, name in Kabat numbering)
VHH: B3 VHH with Q103N, T104R
As to B7, the Mean MFI in [23] stood at 626 MFI.

B8: F0103464B09 T100H library variant (VHH, name in Kabat numbering)
VHH: B3 VHH with Q103N, T104H
Consider B8, for which the Mean MFI in experiment [24] was determined as 689 MFI.

B9: F0103464B09 T100Y library variant (VHH, name in Kabat numbering)
VHH: B3 VHH with Q103N, T104Y
In the case of B9, the Mean MFI in experiment [25] was 526 MFI.

B10: F0103464B09 T100I library variant (VHH, name in Kabat numbering)
VHH: B3 VHH with Q103N, T104I
For the molecule B10, the Mean MFI was 1310 MFI in experiment [26] and 541 MFI in experiment [27].

B11: F0103464B09 T100Q library variant (VHH, name in Kabat numbering)
VHH: B3 VHH with Q103N, T104Q
As for B11, the Mean MFI in experiment [28] amounted to 650 MFI.

B12: F0103464B09 T100E library variant (VHH, name in Kabat numbering)
VHH: B3 VHH with Q103N, T104E
Regarding B12, the results for the Mean MFI in [29] and in experiment [30] were 518 MFI and 973 MFI, respectively.

B13: F0103464B09 N99W library variant (VHH, name in Kabat numbering)
VHH: B3 VHH with Q103W
For the molecule B13, the Mean MFI worked out at 3320 MFI in experiment [31] and 530 MFI in experiment [32].

B14: F0103464B09 N99R library variant (VHH, name in Kabat numbering)
VHH: B3 VHH with Q103R
Turning to B14, the Mean MFI in experiment [33] was determined as 975 MFI; in [34], 572 MFI.

B15: F0103464B09 T100L library variant (VHH, name in Kabat numbering)
VHH: B3 VHH with Q103N, T104L
For the molecule B15, the Mean MFI in experiment [35] was found to be 531 MFI; in experiment [36], 1250 MFI.

B16: F0103464B09 T100K library variant (VHH, name in Kabat numbering)
VHH: B3 VHH with Q103N, T104K
Turning to B16, the Mean MFI in experiment [37] was 583 MFI.

These data come from patent US20240002497A1.
